This note sets out measurements from US9969998B2, “Compositions of adenosine deaminase-2 (ADA2), variants thereof and methods of using same” (Halozyme, Inc., priority 2014, dated 2018).

Read-outs that look alike come from different tables or passages of the source.

Series [1] in a line: Heparin-affinity chromatography (heparin-Sepharose, SDS-PAGE). Format: binding.
The nature of series [2]: Heparin binding ELISA (heparin coated microtiter plate). The conditions noted are these: for Average OD450, heparin binding ELISA: 3 μM protein; for Heparin Binding ELISA Average OD450: single and S265N combination variants (Table 34). The method in brief: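 Plates coated with 200 μg/mL heparin in Na2CO3 buffer pH 9.6 overnight at 4° C, then milk-blocked. FLAG-tagged rHuADA2 variants added at 3 μM for 2 h at room temperature. Bound protein detected with HRP-anti-FLAG and TMB, read as OD450.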

The nature of series [3]: Heparin binding capture ELISA (biotin-heparin on streptavidin plate). To be noted: PEGylated and non-PEGylated forms (Table 22). How it is done:
Heparin binding of PEGylated rHuADA2 or variants was assessed by capture ELISA. Binding of rHuADA1 was assessed as a negative control. 100 μL of 0.2 mg/mL biotin-heparin (Sigma-Aldrich, St. Louis, Mo.; Cat No. B9806-10MG) was added to a streptavidin coated 96-well plate (Thermo Fisher Scientific, Rockford, Ill.; Cat. No. 15520), and incubated at room temperature for 1 hour. The plate was washed 6 times with PBS. Then, 150 μL of […] rHuADA2 was added to the heparin coated plate, titrated in 3× serial dilutions, and incubated at room temperature for 2 hours. The plate was then washed 6 times with PBS. A 1000× dilution of goat HRP-anti-FLAG pAb (Abcam, Cambridge, UK; Cat. No. Ab1238) was added to the ELISA plate and incubated at room temperature for 1 hour. The ELISA plate was then washed 6 times with phosphate buffered saline with Tween (PBST) and developed with the 3,3′,5,5′-Tetramethylbenzidine (TMB) substrate solution (Pierce, Thermo Fisher Scientific, Rockford, Ill.) according the manufacturer's instructions and reading the optical density at 450 nm (OD450) on a plate reader.
A general note: ELISA stands for enzyme-linked immunosorbent assay.

Series [4] in a line: Spectrophotometric adenosine deaminase assay at varying pH (pH optimum). Format: biochemical.
Series [5] is described as follows: In vivo pharmacokinetics of rHuADA2, variants and PEGylated forms (Example 9). To be noted: male BALB/c mice, 7.5 mg/kg intravenous.
From the text: (§1) Fifty four (54) male BALB/c mice were divided into six (6) dosing groups, and were further divided into three (3) groups each for sampling of blood at different time points. Thus, the mice were randomized into eighteen (18) groups total. Mice were weighed prior to the start of the study, and randomized into the 18 groups based upon their body weights. In each sampling group, three groups of (3) mice were used for dosing each test article to prevent oversampling of the blood from the animals. For measurement of baseline ADA2 levels, a blood sample was obtained from 12 randomly chosen mice and plasma was prepared using the anti-coagulant potassium (K3) ethylene diamine tetraacetic acid (K3-EDTA). All blood was collected by submandibular venipuncture.
(§2) Each mouse was injected by intravenous tail-vein injection with a 7.5 mg/kg dose of one of six ADA2 test article as set forth in Table 24, i.e. rHuADA2-K374D (K371D by mature numbering), PEG-rHuADA2-K374D (PEG-K371D by mature numbering), rHuADA2-R23E (R20E by mature numbering), PEG-rHuADA2-R23E (PEG-R20E by mature numbering), or WT ADA2 and PEG-WT ADA2.
(§3) Blood was collected at designated sampling time points from appropriate groups of mice as indicated below in Table 24 and kept on ice until plasma preparation. Plasma was prepared by centrifuging the blood (500×g for 5 min at 4° C.), transferring the plasma to a fresh tube and immediately freezing at −80° C. until the adenosine deaminase activity assay. Adenosine deaminase activity was determined as described in Example 4. The half-life, or time taken for the activity of ADA2 proteins to be reduced by half, was calculated. Also, total exposure was measured by calculating the Area Under the Concentration-time Curve (AUC).
For series [6] the following is noted: mouse, in vivo, iv, 7.5 mg/kg.
From the text: as §1, §2, §3
The nature of series [7]: In vivo pharmacokinetics of PEGylated rHuADA2 combination variants (Example 14). To be noted: BALB/c mice, 3 mg/kg intravenous.
From the text: Twenty-seven (27) male BALB/c mice were divided into three (3) dosing groups, and were further divided into three (3) groups each for sampling of blood at different time points. Thus, the mice were randomized into nine (9) groups total. Mice were weighed prior to the start of the study, and randomized into the 9 groups based upon their body weights. In each sampling group, three groups of (3) mice were used for dosing each test article to prevent oversampling of the blood from the animals. For measurement of baseline ADA2 levels, a blood sample was obtained from 12 randomly chosen mice and plasma was prepared using the anti-coagulant potassium (K3) ethylene diamine tetraacetic acid (K3-EDTA). All blood was collected by submandibular venipuncture.
PEGylated ADA2 variants were prepared using the PEGylation method as described in Example 8.A, with minor modifications. Briefly, all ADA2 variants at 10 mg/mL were PEGylated with linear PEG-20K (JenKem Technology, Plano, Tex.; Cat. No. M-SCM-20K) at 1:15 molar ratio and incubated first at 37° for 30 min, then at 4° C. for 16 hours.
Approximately 200 μL of whole blood was collected at designated sampling time points from appropriate groups of mice as indicated below in Table 38 and kept on ice until plasma preparation. The initial two (2) blood samples were collected by submandibular venipuncture. The final sample was collected from a terminal bleed. Plasma was prepared by centrifuging the blood (500×g for 5 min at 4° C.), transferring the plasma to a fresh tube and immediately freezing at −80° C. until the adenosine deaminase activity assay. Adenosine deaminase activity was determined as described in Example 4.
Non-compartmental analysis (NCA) was conducted using the Phoenix WinNonlin version 6.3 (Pharsight Corp, St. Louis, Mo. 63101). The half-life, or time taken for the activity of ADA2 proteins to be reduced by half, was calculated. Also, total exposure was measured by calculating the Area Under the Concentration-time Curve (AUC). The AUC and half-life values were obtained from the unweighted average from each test article group. The following options in the Phoenix WinNonlin program were used for data analysis: (i) linear trapezoidal/linear interpolation option for AUC; (ii) best-fit slope selection option for terminal slope; and (iii) uniform weighting of the data.
Setting [8] is: vs non-PEGylated WT rHuADA2 of Example 9.

B1: R23E: ADA2 variant SEQ ID NO:30 (protein)
chain: IDETRAHLLLKEKMMRLGGELVLNTKEELANERLMTLKIAEMKEAMRTLIFPPSMHFFQAKHLIERSQVFNILRMMPKGAALHLHDIGIVTMDWLVRNVTYRPHCHICFTPRGIMQFRFAHPTPRPSEKCSKWILLEDYRKRVQNVTEFDDSLLRNFTLVTQHPEVIYTNQNVVWSKFETIFFTISGLIHYAPVFRDYVFRSMQEFYEDNVLYMEIRARLLPVYELSGEHHDEEWSVKTYQEVAQKFVETHPEFIGIKIIYSDHRSKDVAVIAESIRMAMGLRIKFPTVVAGFDLVGHEDTGHSLHDYKEALMIPAKDGVKLPYFFHAGETDWQGTSIDRNILDALMLNTTRIGHGFALSKHPAVRTYSWKKDIPIEVCPISNQVLKLVSDLRNHPVATLMATGHPMVISSDDPAMFGAKGLSYDFYEVFMGIGGMKADLRTLKQLAMNSIKYSTLLESEKNTFMEIWKKRWDKFIADVATK
modifications: human ADA2 R20E, mature numbering
Regarding B1, the “heparin binding compared to WT” value in series [1] was “attenuated heparin binding”. Moreover, in series [1] (compared to WT rHuADA2, 0.3 mg/mL protein), the “Heparin Column Binding” value is “Reduced”. The “binding to heparin-coated plates compared to WT ADA2” value in series [2] was “attenuated binding to heparin”. Further, in series [2] (Set 2), the “Average OD450, heparin binding ELISA” value is 0.2. Also, the “Heparin Binding ELISA Average OD450” value in series [2] turned out to be 0.71. In addition, the “Average OD450, heparin binding capture ELISA” value in series [3] is listed as 0.71. The “Adenosine deaminase activity Δ [ADO]/min × (−100)” value (“Adenosine deaminase activity Δ” below) was 22.84 in series [4] (pH 5.5); 25.64 in series [4] (pH 6); 29.18 in series [4] (pH 6.5); 29.47 in series [4] (pH 6.75); 28.53 in series [4] (pH 7); 21.71 in series [4] (pH 7.25). In addition, the “Adenosine deaminase activity Δ” value in series [4] (pH 7.4) was 19.37; in series [4] (pH 7.75), 7.41; in series [4] (pH 8) it was 5.33. Besides, the “Half life slow (t1/2)” value in series [5] came out at 2.52 h. The “Percent increase in AUC compared to WT ADA2” value (“Percent increase in AUC” below) in series [5] (vs non-PEGylated WT) was determined as 19%. The “Percent increase in t1/2 compared to WT ADA2” value in series [5] (vs non-PEGylated WT) is on record as 119%.

B2: PEG-K374D: rHuADA2-K374D (SEQ ID NO:20) PEGylated on surface exposed lysines with linear PEG-20K (conjugate)
chain: IDETRAHLLLKEKMMRLGGRLVLNTKEELANERLMTLKIAEMKEAMRTLIFPPSMHFFQAKHLIERSQVFNILRMMPKGAALHLHDIGIVTMDWLVRNVTYRPHCHICFTPRGIMQFRFAHPTPRPSEKCSKWILLEDYRKRVQNVTEFDDSLLRNFTLVTQHPEVIYTNQNVVWSKFETIFFTISGLIHYAPVFRDYVFRSMQEFYEDNVLYMEIRARLLPVYELSGEHHDEEWSVKTYQEVAQKFVETHPEFIGIKIIYSDHRSKDVAVIAESIRMAMGLRIKFPTVVAGFDLVGHEDTGHSLHDYKEALMIPAKDGVKLPYFFHAGETDWQGTSIDRNILDALMLNTTRIGHGFALSKHPAVRTYSWDKDIPIEVCPISNQVLKLVSDLRNHPVATLMATGHPMVISSDDPAMFGAKGLSYDFYEVFMGIGGMKADLRTLKQLAMNSIKYSTLLESEKNTFMEIWKKRWDKFIADVATK
modifications: linear PEG-20K on surface lysines; human ADA2 K371D, mature numbering
On to B2, for which the “Average OD450, heparin binding capture ELISA” value in series [3] is reported as 0.15. Moreover, in series [6], the “AUC (mU * h)/mL” value is 2,725,000 (mU * h)/mL, the “Half life slow (t1/2)” value was 21.75 h, the “Percent increase in AUC” value amounted to 8187% and the “Percent increase in t1/2 compared to WT ADA2” value was 1791%. Moreover, in series [7] (plasma ADA activity), the “AUC (total exposure)” value was 4,662 (U * h)/mL and the “Half-life slow (t1/2)” value is on record as 2,256 min. Moreover, in series [7] (setting [8]), the “Percent increase in AUC” value is recorded as 14,177% and the “Percent increase in t1/2 compared to WT ADA2” value is 3,269%.

B3: WT ADA2: wild type recombinant human adenosine deaminase 2 with FLAG tag, mature ADA2 SEQ ID NO:5 (protein, listed as Homo sapiens)
chain: IDETRAHLLLKEKMMRLGGRLVLNTKEELANERLMTLKIAEMKEAMRTLIFPPSMHFFQAKHLIERSQVFNILRMMPKGAALHLHDIGIVTMDWLVRNVTYRPHCHICFTPRGIMQFRFAHPTPRPSEKCSKWILLEDYRKRVQNVTEFDDSLLRNFTLVTQHPEVIYTNQNVVWSKFETIFFTISGLIHYAPVFRDYVFRSMQEFYEDNVLYMEIRARLLPVYELSGEHHDEEWSVKTYQEVAQKFVETHPEFIGIKIIYSDHRSKDVAVIAESIRMAMGLRIKFPTVVAGFDLVGHEDTGHSLHDYKEALMIPAKDGVKLPYFFHAGETDWQGTSIDRNILDALMLNTTRIGHGFALSKHPAVRTYSWKKDIPIEVCPISNQVLKLVSDLRNHPVATLMATGHPMVISSDDPAMFGAKGLSYDFYEVFMGIGGMKADLRTLKQLAMNSIKYSTLLESEKNTFMEIWKKRWDKFIADVATK
modifications: FLAG tag; ADA2 mature protein
In the case of B3, the “Average OD450, heparin binding ELISA” value is recorded as 0.49 in series [2] (Set 1) and 0.55 in series [2] (Set 2). The “Heparin Binding ELISA Average OD450” value in series [2] is 2.31. Moreover, the “Average OD450, heparin binding capture ELISA” value in series [3] was found to be 2.31. In addition, the “Adenosine deaminase activity Δ” value is 21.11 in series [4] (pH 5.5); 22.06 in series [4] (pH 6); 33.77 in series [4] (pH 6.5); 29.76 in series [4] (pH 6.75); 28.70 in series [4] (pH 7); 24.47 in series [4] (pH 7.25). Also, the “Adenosine deaminase activity Δ” value turned out to be 21.77 in series [4] (pH 7.4), 6.65 in series [4] (pH 7.75) and 3.58 in series [4] (pH 8). Moreover, in series [4] (pH 5.5 to 8, 5 mM ADO), the “pH optimum (highest deaminase activity)” value is “approximately 6.5”. For the same molecule, the “Half life slow (t1/2)” value in series [5] came out at 1.15 h.
